The values that follow come from PMC9243104 (Nature Communications, 2022).

The target in data set [1] is WASp (WT*WASp) (Homo sapiens, UniProt P42768 1-502). The data set can be described thus: EMSA; WASp alone; EMSA: 1x Promega E358A gel shift binding buffer (composition not given), 25 ul, 10^5 CPM 32P probe, 10 min 4 C then 20 min room temperature, 6% native PAGE. The following applies: protein: recombinant; tags: Flag; label: 32P (T4 PNK); single strand. Background: In EMSA bound probe runs differently from free probe, usually more slowly.

Data set [2] concerns the target RPA1 (RPA70) (Homo sapiens, UniProt P27694 1-616). Nature of the data set: EMSA; + WASp; binding increased, maximum at equimolar 25 nM WASp; EMSA: 1x Promega E358A gel shift binding buffer (composition not given), 25 ul, 10^5 CPM 32P probe, 10 min 4 C then 20 min room temperature, 6% native PAGE. The following applies: protein: commercial; label: 32P (T4 PNK); single strand.

Data set [3] addresses RPA heterotrimer (RPA1-3) (Homo sapiens, UniProt P27694;P15927;P35244 1-616;1-270;1-121). The data set can be described thus: EMSA; + WASp; binding increased; EMSA: 1x Promega E358A gel shift binding buffer (composition not given), 25 ul, 10^5 CPM 32P probe, 10 min 4 C then 20 min room temperature, 6% native PAGE. The following applies: protein: recombinant; copies: 1;1;1; label: 32P (T4 PNK); single strand.

For data set [4], the target named is RPA1-AB (DBD-A/B) (Homo sapiens, UniProt P27694 181-422). Described as above. The conditions noted are these: protein: recombinant; label: 32P (T4 PNK); single strand.
In data set [5] the target is RPA1-FAB (DBD-F/A/B) (Homo sapiens, UniProt P27694 1-422). The data set is described as above. The following applies: protein: recombinant; label: 32P (T4 PNK); single strand.
Data set [6] concerns the molecule itself. Nature of the data set: ELISA; 1 µg of 1st protein coated on a 96-well plate (1 h, 25 °C), blocked with 5% milk in PBS; 2nd protein added at increasing concentrations in blocking buffer (1 h, 25 °C); detected with anti-WASp antibody, OD450; RPA coated alone or after pre-incubation with 1 nM ssDNA. (In an ELISA, binding on a coated surface is turned into a signal by an enzyme label.)

Sequence of RPA1-AB (DBD-A/B) (P27694 181-422): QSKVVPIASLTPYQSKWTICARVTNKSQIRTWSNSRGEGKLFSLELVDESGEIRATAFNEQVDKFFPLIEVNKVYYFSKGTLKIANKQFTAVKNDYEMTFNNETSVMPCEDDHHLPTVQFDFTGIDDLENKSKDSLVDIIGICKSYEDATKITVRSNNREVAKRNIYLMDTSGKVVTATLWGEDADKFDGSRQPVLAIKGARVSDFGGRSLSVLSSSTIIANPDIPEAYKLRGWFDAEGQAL
Sequence of RPA1-FAB (DBD-F/A/B) (P27694 1-422): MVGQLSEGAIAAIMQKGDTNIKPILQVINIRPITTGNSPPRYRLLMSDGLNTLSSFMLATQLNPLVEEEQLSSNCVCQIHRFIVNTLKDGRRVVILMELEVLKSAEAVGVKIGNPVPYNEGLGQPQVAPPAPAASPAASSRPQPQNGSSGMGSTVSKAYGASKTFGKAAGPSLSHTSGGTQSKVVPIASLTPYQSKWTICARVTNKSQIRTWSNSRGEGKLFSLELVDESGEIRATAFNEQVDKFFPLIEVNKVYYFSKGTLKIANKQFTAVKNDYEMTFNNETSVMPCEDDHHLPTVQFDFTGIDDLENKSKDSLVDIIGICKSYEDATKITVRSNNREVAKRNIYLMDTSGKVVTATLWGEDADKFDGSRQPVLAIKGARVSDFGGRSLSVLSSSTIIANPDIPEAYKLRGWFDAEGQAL
Sequence of RPA heterotrimer (RPA1-3) (P27694 whole entry, chain 1 of 3): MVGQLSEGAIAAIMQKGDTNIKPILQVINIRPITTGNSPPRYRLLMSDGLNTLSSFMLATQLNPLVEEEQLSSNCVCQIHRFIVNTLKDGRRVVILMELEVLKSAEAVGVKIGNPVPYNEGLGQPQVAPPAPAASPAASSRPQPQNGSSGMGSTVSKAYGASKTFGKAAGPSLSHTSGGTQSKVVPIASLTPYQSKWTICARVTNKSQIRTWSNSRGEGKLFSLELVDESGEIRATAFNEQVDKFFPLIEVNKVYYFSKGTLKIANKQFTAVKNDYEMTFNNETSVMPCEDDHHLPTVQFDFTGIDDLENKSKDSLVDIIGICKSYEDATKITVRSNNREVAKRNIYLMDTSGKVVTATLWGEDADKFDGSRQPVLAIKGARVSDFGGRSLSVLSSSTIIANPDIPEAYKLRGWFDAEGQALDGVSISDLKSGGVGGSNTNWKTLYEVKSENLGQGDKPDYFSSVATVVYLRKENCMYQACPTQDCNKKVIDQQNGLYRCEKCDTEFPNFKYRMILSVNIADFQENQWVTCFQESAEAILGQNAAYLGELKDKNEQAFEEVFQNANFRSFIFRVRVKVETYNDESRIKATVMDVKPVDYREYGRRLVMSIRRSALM
Sequence of RPA heterotrimer (RPA1-3) (P15927 whole entry, chain 2 of 3): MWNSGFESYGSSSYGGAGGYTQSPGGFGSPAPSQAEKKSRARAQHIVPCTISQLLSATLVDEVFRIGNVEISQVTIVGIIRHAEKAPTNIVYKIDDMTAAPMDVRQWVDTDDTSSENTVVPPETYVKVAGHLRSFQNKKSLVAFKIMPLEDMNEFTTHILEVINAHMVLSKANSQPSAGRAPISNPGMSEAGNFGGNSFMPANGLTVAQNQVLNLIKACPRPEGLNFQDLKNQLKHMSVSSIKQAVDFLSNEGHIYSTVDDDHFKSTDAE
Sequence of RPA heterotrimer (RPA1-3) (P35244 whole entry, chain 3 of 3): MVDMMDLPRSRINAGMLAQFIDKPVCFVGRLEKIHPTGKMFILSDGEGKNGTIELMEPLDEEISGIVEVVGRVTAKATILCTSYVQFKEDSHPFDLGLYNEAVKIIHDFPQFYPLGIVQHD
Sequence of RPA1 (RPA70) (P27694 whole entry): as the sequence (P27694 whole entry, chain 1 of 3) above

B1: XO1 ssDNA 61-mer (ssDNA)
DNA: GACGCTGCCGAATTCTACCAGTGCCTTGCTAGGACATCTTTGCCCACCTGCAGGTTCACCC
In the case of B1, the binding result was “no binding” in data set [1]; “binds” in data set [2]; “binds” in data set [3]; “binds” in data set [4]; “binds” in data set [5].

B2: ssRNA 61-mer (ssRNA)
RNA: GACGCUGCCGAAUUCUACCAGUGCCUUGCUAGGACAUCUUUGCCCACCUGCAGGUUCACCC
As for B2, the binding result in data set [1] is “no binding”.

B3: Recombinant human WT*WASp (Wiskott-Aldrich syndrome protein) (natural protein, UniProt P42768 1-502, looked up)
chain: MSGGPMGGRPGGRGAPAVQQNIPSTLLQDHENQRLFEMLGRKCLTLATAVVQLYLALPPGAEHWTKEHCGAVCFVKDNPQKSYFIRLYGLQAGRLLWEQELYSQLVYSTPTPFFHTFAGDDCQAGLNFADEDEAQAFRALVQEKIQKRNQRQSGDRRQLPPPPTPANEERRGGLPPLPLHPGGDQGGPPVGPLSLGLATVDIQNPDITSSRYRGLPAPGPSPADKKRSGKKKISKADIGAPSGFKHVSHVGWDPQNGFDVNNLDPDLRSLFSRAGISEAQLTDAETSKLIYDFIEDQGGLEAVRQEMRRQEPLPPPPPPSRGGNQLPRPPIVGGNKGRSGPLPPVPLGIAPPPPTPRGPPPPGRGGPPPPPPPATGRSGPLPPPPPGAGGPPMPPPPPPPPPPPSSGNGPAPPPLPPALVPAGGLAPGGGRGALLDQIRQGIQLNKTPGAPESSALQPPPQSSEGLVGALMHVMQKRSRAIHSSDEGEDQAGDEDEDDEWDD
notes: human WASp, codon-optimized WAS gene cloned into the NdeI-HindIII site of pET30a; also called wild-type WASp; native purified human WASp; source: E. coli DE3 (pET30a-WT*WASp), purified using Flag-tag; commercially produced by GenScript
Consider B3, for which the binding result in data set [6] is “binds”.

B4: Recombinant human ΔRBM1*WASp (WASp mutant lacking the RPA1-binding motif, aa 493-502) (natural protein, UniProt P42768 1-502, looked up)
chain: MSGGPMGGRPGGRGAPAVQQNIPSTLLQDHENQRLFEMLGRKCLTLATAVVQLYLALPPGAEHWTKEHCGAVCFVKDNPQKSYFIRLYGLQAGRLLWEQELYSQLVYSTPTPFFHTFAGDDCQAGLNFADEDEAQAFRALVQEKIQKRNQRQSGDRRQLPPPPTPANEERRGGLPPLPLHPGGDQGGPPVGPLSLGLATVDIQNPDITSSRYRGLPAPGPSPADKKRSGKKKISKADIGAPSGFKHVSHVGWDPQNGFDVNNLDPDLRSLFSRAGISEAQLTDAETSKLIYDFIEDQGGLEAVRQEMRRQEPLPPPPPPSRGGNQLPRPPIVGGNKGRSGPLPPVPLGIAPPPPTPRGPPPPGRGGPPPPPPPATGRSGPLPPPPPGAGGPPMPPPPPPPPPPPSSGNGPAPPPLPPALVPAGGLAPGGGRGALLDQIRQGIQLNKTPGAPESSALQPPPQSSEGLVGALMHVMQKRSRAIHSSDEGEDQAG
notes: also called RBM1-deleted WASp mutant; source: E. coli DE3 (pET30a-∆RBM1*WASp), purified using Flag-tag; commercially produced by GenScript
Take B4: the binding result in data set [6] is listed as “binds”.
